One molecule from US6716816 can be followed below.

The target in this assay is T1, lecithin:cholesterol acyltransferase (LCAT), purified from human plasma (human, UniProt P04180 25-440).
T1 sequence (looked up): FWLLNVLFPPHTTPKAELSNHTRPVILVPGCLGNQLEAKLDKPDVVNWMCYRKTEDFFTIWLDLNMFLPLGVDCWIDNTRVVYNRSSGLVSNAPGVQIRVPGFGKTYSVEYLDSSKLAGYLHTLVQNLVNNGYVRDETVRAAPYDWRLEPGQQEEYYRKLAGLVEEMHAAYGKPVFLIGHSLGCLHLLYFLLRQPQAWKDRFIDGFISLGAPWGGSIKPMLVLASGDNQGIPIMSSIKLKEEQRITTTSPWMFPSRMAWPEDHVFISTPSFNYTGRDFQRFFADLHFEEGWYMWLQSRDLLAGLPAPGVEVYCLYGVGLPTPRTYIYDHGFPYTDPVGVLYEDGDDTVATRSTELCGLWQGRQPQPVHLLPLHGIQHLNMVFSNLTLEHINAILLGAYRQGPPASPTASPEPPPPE
The assay is described as follows: cell-based or functional assay.

Where no end group is shown, it is not given here. [ ]: non-standard residue; d: D form. Aib = CC(C)(N)C(=O)O

B1: peptide 78 (peptide)
peptide: PVLDEFRDKLNE[Aib]LEALKQKLK
Take B1: the “ACTIVITY (%) LCAT” value is 9%.
